Source: US10428140B2, “Anti-EphA4 antibody” (EISAI R&D MANAGEMENT CO., LTD., priority 2015, dated 2019)

T1: human EphB2 (Homo sapiens, UniProt P29323)
T1 construct: a protein of the extracellular region of each human Eph receptor fused with the SEAP protein and the His tag; made in house; host or cells: Expi293F cells
T1 sequence (P29323 19-543 limits assumed): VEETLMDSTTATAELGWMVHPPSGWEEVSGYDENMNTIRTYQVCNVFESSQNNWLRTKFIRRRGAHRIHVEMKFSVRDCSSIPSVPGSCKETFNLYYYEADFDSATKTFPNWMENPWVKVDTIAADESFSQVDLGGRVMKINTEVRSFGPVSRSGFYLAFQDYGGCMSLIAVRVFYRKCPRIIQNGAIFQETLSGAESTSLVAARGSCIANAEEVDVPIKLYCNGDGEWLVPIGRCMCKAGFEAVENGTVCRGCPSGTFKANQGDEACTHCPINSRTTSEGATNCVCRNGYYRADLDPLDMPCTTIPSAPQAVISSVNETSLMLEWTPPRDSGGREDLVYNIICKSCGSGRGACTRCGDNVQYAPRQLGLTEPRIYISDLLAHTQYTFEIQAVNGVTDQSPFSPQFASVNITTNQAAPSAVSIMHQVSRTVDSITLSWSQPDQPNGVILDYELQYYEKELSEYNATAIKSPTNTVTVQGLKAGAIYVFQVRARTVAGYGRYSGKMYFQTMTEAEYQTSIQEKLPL

T2: human EphB4 (Homo sapiens, UniProt P54760)
T2 construct: a protein of the extracellular region of each human Eph receptor fused with the SEAP protein and the His tag; made in house; host or cells: Expi293F cells
T2 sequence (P54760 16-539 limits assumed): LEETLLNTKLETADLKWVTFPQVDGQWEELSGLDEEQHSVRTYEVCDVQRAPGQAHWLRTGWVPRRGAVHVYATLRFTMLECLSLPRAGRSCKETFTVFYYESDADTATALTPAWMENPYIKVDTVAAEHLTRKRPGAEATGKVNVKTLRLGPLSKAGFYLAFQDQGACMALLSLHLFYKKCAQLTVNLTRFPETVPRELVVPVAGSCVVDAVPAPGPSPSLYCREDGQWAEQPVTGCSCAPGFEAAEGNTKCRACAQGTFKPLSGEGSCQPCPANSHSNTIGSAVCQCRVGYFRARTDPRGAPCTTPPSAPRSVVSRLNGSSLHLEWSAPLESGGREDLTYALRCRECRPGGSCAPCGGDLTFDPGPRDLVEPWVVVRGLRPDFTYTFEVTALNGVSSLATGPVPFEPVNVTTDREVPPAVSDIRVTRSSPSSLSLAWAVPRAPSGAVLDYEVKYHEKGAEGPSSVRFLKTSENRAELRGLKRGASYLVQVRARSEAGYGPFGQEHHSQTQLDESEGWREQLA


Key:
Assay in all cases: Selectivity ELISA of humanized antibodies for human Eph receptor
Assay type in all cases: binding
human EphA2 = molecular target: T3, human EphA2 (Homo sapiens, UniProt P29317); details: coated protein 1 nM
T3 construct: a protein of the extracellular region of each human Eph receptor fused with the SEAP protein and the His tag; made in house; host or cells: Expi293F cells (culture supernatant)
T3 sequence (P29317 24-537 limits assumed): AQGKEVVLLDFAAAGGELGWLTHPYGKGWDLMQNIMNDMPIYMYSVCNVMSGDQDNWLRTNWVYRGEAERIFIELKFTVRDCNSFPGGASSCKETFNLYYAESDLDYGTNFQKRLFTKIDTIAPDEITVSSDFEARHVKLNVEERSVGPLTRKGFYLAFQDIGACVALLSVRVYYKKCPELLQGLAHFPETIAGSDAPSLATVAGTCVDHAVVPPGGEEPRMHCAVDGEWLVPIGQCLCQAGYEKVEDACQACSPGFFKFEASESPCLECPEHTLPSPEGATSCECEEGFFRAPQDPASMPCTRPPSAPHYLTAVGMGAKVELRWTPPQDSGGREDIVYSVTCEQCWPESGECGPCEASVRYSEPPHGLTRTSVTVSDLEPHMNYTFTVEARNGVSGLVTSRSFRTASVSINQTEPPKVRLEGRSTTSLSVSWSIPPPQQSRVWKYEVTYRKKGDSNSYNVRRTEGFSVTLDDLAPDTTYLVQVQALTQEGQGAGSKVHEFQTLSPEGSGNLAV
Method in brief: (§1)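 Extracellular domains of human Eph receptors fused to SEAP-His were expressed in Expi293F cells for 5 days and captured from supernatant (1 nM final) on anti-His-coated plates. Humanized anti-EphA4 antibodies were incubated 1 h at room temperature, then HRP anti-IgG secondary, TMB substrate, and absorbance at 450 nm.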

human EphA4 = molecular target: T4, human EphA4 (Homo sapiens, UniProt P54764); details: coated protein 1 nM; reference set to 100%
T4 construct: made in house; not restated for the human SEAP-His protein
T4 sequence (P54764 20-547): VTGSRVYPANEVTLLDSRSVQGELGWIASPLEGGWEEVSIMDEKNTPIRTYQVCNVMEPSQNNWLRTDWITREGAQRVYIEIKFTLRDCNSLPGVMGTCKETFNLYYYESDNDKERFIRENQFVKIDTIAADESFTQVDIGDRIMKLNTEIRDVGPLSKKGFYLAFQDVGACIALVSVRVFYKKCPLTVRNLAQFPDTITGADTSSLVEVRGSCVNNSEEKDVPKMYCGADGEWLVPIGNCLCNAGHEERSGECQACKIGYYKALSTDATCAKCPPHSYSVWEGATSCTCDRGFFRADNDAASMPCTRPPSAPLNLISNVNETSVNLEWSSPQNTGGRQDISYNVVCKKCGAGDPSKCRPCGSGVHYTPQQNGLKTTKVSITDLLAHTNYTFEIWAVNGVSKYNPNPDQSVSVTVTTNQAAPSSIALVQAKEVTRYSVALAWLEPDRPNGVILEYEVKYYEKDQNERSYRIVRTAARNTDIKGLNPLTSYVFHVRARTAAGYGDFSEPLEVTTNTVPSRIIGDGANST
Method in brief: as §1

human EphB2 = molecular target: T1, human EphB2; details: coated protein 1 nM
Method in brief: as §1

human EphB4 = molecular target: T2, human EphB4; details: coated protein 1 nM
Method in brief: as §1

Molecule | hEphA2-SEAP-: absorbance at 450 nm, percentage with respect to hEphA4-SEAP-His as 100% (human EphA2) [%] | hEphA4-SEAP-: absorbance at 450 nm, percentage with respect to hEphA4-SEAP-His as 100% (human EphA4) [%] | hEphB2-SEAP-: absorbance at 450 nm, percentage with respect to hEphA4-SEAP-His as 100% (human EphB2) [%] | hEphB4-SEAP-: absorbance at 450 nm, percentage with respect to hEphA4-SEAP-His as 100% (human EphB4) [%]
139 (antibody, synthetic humanized antibody heavy chain variable region sequence; synthetic humanized antibody light chain variable region sequence; synthetic antibody constant region sequence) VH: QVQLVQSGSELKKPGASVKVSCKASGYTFTDYSMHWVRQAPGQGLEWMGWINTETGEPTYAQGFTGRFVFSLDTSVSTAYLQISSLKAEDTAVYYCARIPLYYYGSRYWYFDVWGQGTTVTVSS VL: DIQMTQSPSSLSASVGDRVTITCRASENIYRNLAWYQQKPGKAPKLLVYAATNLADGVPSRFSGSGSGTDYTLTISSLQPEDFATYYCQHFWGTPWTFGQGTKVEIK ASTKGPSVFPLAPSSRSTSESTAALGCLVKDYFPEPVTVSWNSGALTSGVHTFPAVLQSSGLYSLSSVVTVPSSNFGTQTYTCNVDHKPSNTKVDKTVERKSCVECPPCPAPPAAAPSVFLFPPKPKDTLMISRTPEVTCVVVDVSHEDPEVQFNWYVDGVEVHNAKTKPREEQFNSTFRVVSVLTVVHQDWLNGKEYKCKVSNKGLPAPIEKTISKTKGQPREPQVYTLPPSREEMTKNQVSLTCLVKGFYPSDIAVEWESNGQPENNYKTTPPMLDSDGSFFLYSKLTVDKSRWQQGNVFSCSVMHEALHNHYTQKSLSLSPG | 5.9 | 100 | 5.7 | 5.7
141 (antibody, V domains shown, synthetic humanized antibody heavy chain variable region sequence; synthetic humanized antibody light chain variable region sequence) VH: QVQLVQSGSELKKPGASVKVSCKASGYTFTDYSMHWVRQAPGQGLEWMGWINTETGEPTYADDFKGRFVFSLDTSVSTAYLQISSLKAEDTAVYYCARIPLYYYGSRYWYFDVWGQGTTVTVSS VL: DIQMTQSPSSLSASVGDRVTITCRASENIYRNLAWYQQKPGKAPKLLVYAATNLADGVPSRFSGSGSGTDYTLTISSLQPEDFATYYCQHFWGTPWTFGQGTKVEIK | 5.2 | 100 | 5.2 | 5.4
140 (antibody, V domains shown, synthetic humanized antibody heavy chain variable region sequence; synthetic humanized antibody light chain variable region sequence) VH: QVQLVQSGSELKKPGASVKVSCKASGYTFTDYSMHWVRQAPGQGLKWMGWINTETGEPTYAQGFTGRFVFSLDTSVSTAYLQISSLKAEDTAVYYCARIPLYYYGSRYWYFDVWGQGTTVTVSS VL: DIQMTQSPSSLSASVGDRVTITCRASENIYRNLAWYQQKPGKAPKLLVYAATNLADGVPSRFSGSGSGTDYTLTISSLQPEDFATYYCQHFWGTPWTFGQGTKVEIK | 5.3 | 100 | 5.3 | 5.4
138 (antibody, V domains shown, synthetic humanized antibody heavy chain variable region sequence; synthetic humanized antibody light chain variable region sequence) VH: QIQLVQSGSELKKPGASVKVSCKASGYTFTDYSMHWVRQAPGQGLKWMGWINTETGEPTYAQGFTGRFVFSLDTSVSTAYLQISSLKAEDTAVYYCARIPLYYYGSRYWYFDVWGQGTTVTVSS VL: DIQMTQSPSSLSASVGDRVTITCRASENIYRNLAWYQQKPGKAPKLLVYAATNLADGVPSRFSGSGSGTDYTLTISSLQPEDFATYYCQHFWGTPWTFGQGTKVEIK | 5.0 | 100 | 5.2 | 5.2

Continued, values first:

hEphA2-SEAP-: absorbance at 450 nm, percentage with respect to hEphA4-SEAP-His as 100% (human EphA2) [%] | hEphA4-SEAP-: absorbance at 450 nm, percentage with respect to hEphA4-SEAP-His as 100% (human EphA4) [%] | hEphB2-SEAP-: absorbance at 450 nm, percentage with respect to hEphA4-SEAP-His as 100% (human EphB2) [%] | hEphB4-SEAP-: absorbance at 450 nm, percentage with respect to hEphA4-SEAP-His as 100% (human EphB4) [%] | Molecule
5.7 | 100 | 5.8 | 5.9 | 143 (antibody, V domains shown, synthetic humanized antibody heavy chain variable region sequence; synthetic humanized antibody light chain variable region sequence) VH: QIQLVQSGSELKKPGASVKVSCKASGYTFTDYSMHWVRQAPGQGLKWMGWINTETGEPTYADDFKGRFVFSLDTSVSTAYLQISSLKAEDTAVYYCARIPLYYYGSRYWYFDVWGQGTTVTVSS VL: DIQMTQSPSSLSASVGDRVTITCRASENIYRNLAWYQQKPGKAPKLLVYAATNLADGVPSRFSGSGSGTDYTLTISSLQPEDFATYYCQHFWGTPWTFGQGTKVEIK
6.0 | 100 | 5.9 | 6.0 | 153 (antibody, V domains shown, synthetic humanized antibody heavy chain variable region sequence; synthetic humanized antibody light chain variable region sequence) VH: QVQLVQSGSELKKPGASVKVSCKASGYTFTDYSMHWVRQAPGQGLKWMGWINTETGEPTYAQGFTGRFVFSLDTSVSTAYLQISSLKAEDTAVYYCARIPLYYYGSRYWYFDVWGQGTTVTVSS VL: DIQMTQSPSSLSASVGDRVTITCRASENIYRNLAWYQQKPGKAPKLLLYAATNLADGVPSRFSGSGSGTDYTLTISSLQSEDFATYYCQHFWGTPWTFGQGTKVEIK
5.8 | 100 | 5.8 | 5.9 | 152 (antibody, V domains shown, synthetic humanized antibody heavy chain variable region sequence; synthetic humanized antibody light chain variable region sequence) VH: QVQLVQSGSELKKPGASVKVSCKASGYTFTDYSMHWVRQAPGQGLEWMGWINTETGEPTYAQGFTGRFVFSLDTSVSTAYLQISSLKAEDTAVYYCARIPLYYYGSRYWYFDVWGQGTTVTVSS VL: DIQMTQSPSSLSASVGDRVTITCRASENIYRNLAWYQQKPGKAPKLLLYAATNLADGVPSRFSGSGSGTDYTLTISSLQSEDFATYYCQHFWGTPWTFGQGTKVEIK
5.6 | 100 | 5.6 | 5.7 | 142 (antibody, V domains shown, synthetic humanized antibody heavy chain variable region sequence; synthetic humanized antibody light chain variable region sequence) VH: QVQLVQSGSELKKPGASVKVSCKASGYTFTDYSMHWVRQAPGQGLKWMGWINTETGEPTYADDFKGRFVFSLDTSVSTAYLQISSLKAEDTAVYYCARIPLYYYGSRYWYFDVWGQGTTVTVSS VL: DIQMTQSPSSLSASVGDRVTITCRASENIYRNLAWYQQKPGKAPKLLVYAATNLADGVPSRFSGSGSGTDYTLTISSLQPEDFATYYCQHFWGTPWTFGQGTKVEIK
